Reference: patent US20110065633A1, “ESTER-BASED PEPTIDE PRODRUGS” (INDIANA UNIVERSITY RESEARCH AND TECHNOLOGY CORPORATION, priority 2008, published 2011)
Where two headings read alike, the source gives them in different places. Bridges are numbered along the chain shown (N, C = ends). Where no end group is shown, it is not given here. [ ]: non-standard residue; d: D form. PhLac = O=C(O)[C@@H](O)Cc1ccccc1

B1: [PLA6, D9, E16, E24K28(lactam), D28]G(6-29) (peptide)
peptide: [PhLac]TSDYSKYLDERRAQDFVEWLMKT-NH2
modifications: lactam 19-23; N-terminus assumed
SMILES: CSCC[C@@H]1NC(=O)[C@H](CC(C)C)NC(=O)[C@H](Cc2c[nH]c3ccccc23)NC(=O)[C@@H](NC(=O)[C@@H](NC(=O)[C@H](Cc2ccccc2)NC(=O)[C@H](CC(=O)O)NC(=O)[C@H](CCC(N)=O)NC(=O)[C@H](C)NC(=O)[C@H](CCCNC(=N)N)NC(=O)[C@H](CCCNC(=N)N)NC(=O)[C@H](CCC(=O)O)NC(=O)[C@H](CC(=O)O)NC(=O)[C@H](CC(C)C)NC(=O)[C@H](Cc2ccc(O)cc2)NC(=O)[C@H](CCCCN)NC(=O)[C@H](CO)NC(=O)[C@H](Cc2ccc(O)cc2)NC(=O)[C@H](CC(=O)O)NC(=O)[C@H](CO)NC(=O)[C@@H](NC(=O)[C@@H](O)Cc2ccccc2)[C@@H](C)O)C(C)C)CCC(=O)NCCCC[C@@H](C(=O)N[C@H](C(N)=O)[C@@H](C)O)NC1=O
B2: [E9, E16K20(lactam), D28]G(4-29) (peptide)
peptide: GTFTSEYSKYLDERRAKDFVQWLMDT-NH2
modifications: lactam 13-17; N-terminus assumed
SMILES: CSCC[C@H](NC(=O)[C@H](CC(C)C)NC(=O)[C@H](Cc1c[nH]c2ccccc12)NC(=O)[C@H](CCC(N)=O)NC(=O)[C@@H](NC(=O)[C@H](Cc1ccccc1)NC(=O)[C@H](CC(=O)O)NC(=O)[C@@H]1CCCCNC(=O)CC[C@H](NC(=O)[C@H](CC(=O)O)NC(=O)[C@H](CC(C)C)NC(=O)[C@H](Cc2ccc(O)cc2)NC(=O)[C@H](CCCCN)NC(=O)[C@H](CO)NC(=O)[C@H](Cc2ccc(O)cc2)NC(=O)[C@H](CCC(=O)O)NC(=O)[C@H](CO)NC(=O)[C@@H](NC(=O)[C@H](Cc2ccccc2)NC(=O)[C@@H](NC(=O)CN)[C@@H](C)O)[C@@H](C)O)C(=O)N[C@@H](CCCNC(=N)N)C(=O)N[C@@H](CCCNC(=N)N)C(=O)N[C@@H](C)C(=O)N1)C(C)C)C(=O)N[C@@H](CC(=O)O)C(=O)N[C@H](C(N)=O)[C@@H](C)O

Tests used:
Experiment in all cases: cell-based or functional assay
glucagon receptor [1] = target: glucagon receptor (UniProt P47871)
GLP-1 receptor [2] = target: T1, GLP-1 receptor (Homo sapiens, UniProt P43220)
glucagon receptor [3] = target: glucagon receptor (UniProt P47871); remark: listed apart in the source
GLP-1 receptor [4] = target: T1, GLP-1 receptor; remark: listed apart in the source
GLP-1 receptor [5] = target: T2, GLP-1 receptor (UniProt P43220 24-463, limits assumed)
glucagon receptor [6] = target: glucagon receptor (UniProt P47871 26-477)
GLP-1 receptor [7] = target: T2, GLP-1 receptor; remark: listed apart in the source

glucagon receptor (UniProt P47871 26-477), sequence (P47871 26-477 limits assumed): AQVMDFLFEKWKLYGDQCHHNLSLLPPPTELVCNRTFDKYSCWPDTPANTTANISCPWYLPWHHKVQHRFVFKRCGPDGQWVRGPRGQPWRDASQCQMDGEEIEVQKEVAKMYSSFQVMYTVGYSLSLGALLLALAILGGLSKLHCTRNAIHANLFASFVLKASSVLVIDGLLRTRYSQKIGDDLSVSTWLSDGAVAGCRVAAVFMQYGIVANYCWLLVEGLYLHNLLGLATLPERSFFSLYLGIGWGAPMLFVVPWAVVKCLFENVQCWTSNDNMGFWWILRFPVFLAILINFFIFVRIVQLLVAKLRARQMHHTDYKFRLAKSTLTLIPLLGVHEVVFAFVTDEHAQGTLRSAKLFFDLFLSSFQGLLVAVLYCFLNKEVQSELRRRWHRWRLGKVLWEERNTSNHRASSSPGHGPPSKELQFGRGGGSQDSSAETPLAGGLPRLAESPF
T1 sequence (P43220 24-463 limits assumed): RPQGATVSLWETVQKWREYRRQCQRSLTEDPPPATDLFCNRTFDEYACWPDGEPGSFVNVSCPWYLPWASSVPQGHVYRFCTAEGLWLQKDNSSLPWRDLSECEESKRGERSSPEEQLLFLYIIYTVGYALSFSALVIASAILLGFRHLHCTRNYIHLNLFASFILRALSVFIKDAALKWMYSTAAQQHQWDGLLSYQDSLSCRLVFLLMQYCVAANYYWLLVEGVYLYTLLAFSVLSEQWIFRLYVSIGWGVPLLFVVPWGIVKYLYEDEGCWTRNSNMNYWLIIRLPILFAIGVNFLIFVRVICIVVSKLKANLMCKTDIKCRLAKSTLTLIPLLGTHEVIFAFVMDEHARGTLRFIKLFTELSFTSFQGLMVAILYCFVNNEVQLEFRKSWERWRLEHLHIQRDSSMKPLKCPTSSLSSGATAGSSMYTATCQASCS
glucagon receptor (UniProt P47871), sequence (P47871 26-477 limits assumed): as the sequence (P47871 26-477 limits assumed) above

Molecule | GLP-1 EC50 (GLP-1 receptor [5]) [nM] | Glucagon IC50 (glucagon receptor [6]) [nM] | GLP-1 EC50 (GLP-1 receptor [7]) [nM] | other results
Glucagon (6-CEX) analog D9, K12E16(Lactam) (peptide) | – | – | – | Glu IC50 (glucagon receptor [1]): 828 nM; GLP-1 EC50 (GLP-1 receptor [2]): 119 nM; Glucagon IC50 (glucagon receptor [3]): 828 nM; GLP-1 EC50 (GLP-1 receptor [4]): 18 nM
[PhLac]TSDYSKYLDERRAKDFVQWLMDT-NH2 (lactam 11-15) [[PLA6, D9, E16K20(lactam), D28]G(6-29)] | 4 | 10 to 30 | – | –
B1 | – | 22 | 289 | –
B2 | – | 10 to 30 | 151 | –
FTSDYSKYLDSRRAQDFVQWLMDT (residue 1 (position 6) is phenyl lactic acid (PLA), written here as F) [PLA 6, D9, D28] | ~700 | – | – | –
HSQGTFTSDYARYLDARRAREFIKWLVRGRG [ANK2 (Bayer peptide)] | – | – | 0.28 | –
